{
  "source": "patent US20230183305A1",
  "about": "“KERATIN BD-11, PREPARATION METHOD THEREFOR AND PHARMACEUTICAL COMPOSITION AND USE THEREOF” (INSTITUTE OF MATERIA MEDICA, CHINESE ACADEMY OF MEDICAL …, priority 2019, published 2023)",
  "key": {"[1]": {"tested_on": "lipopolysaccharide (LPS) induced fever in SD rats", "assay": "Lipopolysaccharide (LPS) induced fever model in SD rats", "type": "in vivo, rat", "conditions": "for Body temperature 2 hours after modeling: 2 h after LPS 20 µg/kg i.p.; for Body temperature 2 hours after modeling / Body temperature 4 hours after modeling / Body temperature 6 hours after modeling / Body temperature 8 hours after modeling: n=8; for Body temperature 4 hours after modeling: 4 h after LPS 20 µg/kg i.p.; for Body temperature 6 hours after modeling: 6 h after LPS 20 µg/kg i.p.; for Body temperature 8 hours after modeling: 8 h after LPS 20 µg/kg i.p.", "protocol": "• Animals: 230-260 grams of male SD rats; • Drugs: lipopolysaccharide (LPS, SIGMAL-2880), aspirin (SIGMA A2093), protein BD-11; • Instruments: electronic balance (SARTORIUS BP121S type), electronic clinical thermometer (CITIZEN CT-513W type).\nExperiment grouping: • Normal control group; • Model group: lipopolysaccharide fever model; • Positive control group: Aspirin 300 mg/kg group; • Protein BD-11, 10 mg/kg group, 50 mg/kg group. Method: the method of intraperitoneal injection of Lipopolysaccharide to replicate rat fever model.\nPreparation of experimental animals: After the experimental animals adapt to the experimental environment (temperature 22° C.±2° C., relative humidity 50%±2%) for 1 day. Pre-adaptation to measure rectal temperature at 8:00 and 15:00, rats were fasted and water was taken freely 12 h before experiment, and let the animal to empty its feces before measuring the rectal temperature. Apply petroleum jelly to the electronic thermometer probe before each temperature measurement. Insert the rat rectum 2 cm (can be marked at 2 cm to ensure that the depth of each insertion is consistent), and record the body temperature after the reading is stable.\nIntraperitoneal injection of lipopolysaccharide to replicate rat fever model: The body temperature of the rats was measured before modeling. Qualified rats with a body temperature of 36.2-37.3° C. were selected and randomly divided into groups with 8 rats in each group. After oral administration of aspirin and different doses of protein BD-11, lipopolysaccharide (20 µg/kg, 2 ml/kg) was injected intraperitoneally immediately, and the normal control group was injected intraperitoneally with an equal volume of normal saline. The body temperatures of the rats were monitored after 2 hours for a total of 8 hours.\nAccording to the body temperature measured at each time point on the day of the experiment, calculate the mean, standard deviation and standard error of the body temperature of each group of rats. The data of each group was compared with TTEST, and P<0.05 was considered as a significant difference.\nImmediately after oral administration of aspirin (300 mg/kg), protein BD-11 (10 mg/kg, 50 mg/kg), intraperitoneal injection of 20 µg/kg lipopolysaccharide was performed to establish a model. The animal body temperature was monitored at 2 hours, 4 hours, 6 hours, and 8 hours after modeling."}, "[2]": {"tested_on": "PLO-induced epilepsy in ICR mice", "assay": "Pilocarpine (PLO) induced convulsive epilepsy in mice", "type": "in vivo, mouse", "design": "mortality rate: unit not given here", "conditions": "for Cases of deaths / Grade IV seizure rate / mortality rate / Cases of Grade IV: PLO 225 mg/kg i.p., 10 mice; for Cases of Grade IV: 30 min observation; for Grade II seizure incubation period / Grade III seizure incubation period / Grade IV seizure incubation period: mean±SEM; for Grade IV seizure incubation period: no Grade IV recorded as maximum 1800 s", "protocol": "• Animals: male ICR mice; • Drugs: Pilocarpine HCl (PLO, pilocarpine, pilocarpine hydrochloride), Diazepam (diazepam tablets), protein BD-11.\nExperiment grouping: • Model group: • Diazepam 2 mg/kg group; • Protein BD-11, 50 mg/kg group, 200 mg/kg group.\nThe drug was administered once in the afternoon the day before modeling, PLO-225 mg/kg (modeling agent) was injected intraperitoneally 1 hour after the test drug was administered intragastrically on the day of modeling. And positive drug can be administered once 20 minutes before modeling. Observe for 30 minutes after PLO injection.\nObservation indicators: ①Seizure situation: the time of seizures from Grade II to Grade IV; (2)the time to death.\n(§1) Seizure grade: Refer to Racine grading standard: Grade 0: No response; Grade I: manifested as twitching of facial muscles or the corners of the mouth; Grade II: can nod; Grade III: twitching of one limb; Grade IV: rigidity or body twitching; Grade V: generalized epilepsy (generalized tonic seizures).\nCount the number of Grade IV seizures and deaths in each group of mice in the experiment; Grade II, III and IV incubation period. […] Chi-square test was used for statistics of the number of cases. The mean value and standard error of the incubation period were calculated, and TTEST was used to compare the model group with other groups. P<0.05 was considered as a significant difference."}, "[3]": {"tested_on": "PTZ-induced epilepsy in ICR mice", "assay": "Pentylenetetrazole (PTZ) induced epilepsy in mice", "type": "in vivo, mouse", "design": "mortality rate: unit not given here", "conditions": "for Cases of deaths / Grade IV seizure rate / mortality rate / Cases of Grade IV: PTZ 65 mg/kg i.p., 10 mice; for Cases of Grade IV: 15 min observation; for Grade III seizure incubation period / Grade IV seizure incubation period: mean±SEM; for Grade IV seizure incubation period: no Grade IV recorded as maximum 900 s", "protocol": "• Animals: male ICR mice; • Medicines: Pentylenetetrazol (PTZ), Retigabine, Protein BD-11.\nExperiment grouping: • Model group; • Retigabine 60 mg/kg group; • Protein BD-11, 50 mg/kg group, 200 mg/kg group;\nThe drug was administered once in the afternoon the day before modeling, On the day of modeling, PTZ-65 mg/kg (modeling agent) was injected intraperitoneal 1 hour after the test drug was administered intragastrically, and the positive drug can be administered once half an hour before modeling. Continue to observe for 15 minutes after injection of PTZ.\nObservation index: ①Seizure situation: the time of seizures from Grade III to […]; ②Death situation\nas §1\nCount the cases of seizures and deaths in each group of mice in the experiment; Grade III and IV incubation period. The incubation period of mice that have not attacked to Grade IV is recorded as the maximum of 900 seconds. Chi-square test was used for statistics of the number of cases. Calculate the mean and standard error of the incubation period. Use TTEST to compare the model group with other groups, and P<0.05 is considered as a significant difference."}},
  "data": [
    {"molecule": "BD-11: recombinant keratin, amino acid sequence SEQ ID NO:1, expressed in E. coli, band around 59 kD; Example 4 batch tested (protein, listed as Bos taurus) MSRQSTITFQTSSRRGFSTASATTPATSRSRFSSASVTHSPAGSGGLGRISGFGSRSLYNLGGTKRVSISGCGSNFRSGFGGRASSGFGVSGGFGYGGGIGGGHGGCGFSVCPPGGIQEVTVNQSLLTPLNLQIDPNIQRVRKEEREQIKTLNNKFASFIDKVRFLEQQNKVLETKWSLLQEQGTRTVRQSLEPFFEAYITDLRRQLDSITTERGRLDAELRTMQDVVEDFKVRYEDEINKRTAAENEFVALKKDVDAAYLNKVDLEAKANSLTDEINFLQMLFEAELCQMQTRVSDTSVVLSMDNNRSLDLDSIIAEVKAQYEEIANRSRAEAESWYQTKYEELQVTAGQHGDDLRNTKQEISETNRMIQRLRAEIDNVKKQCASLQTAIADAEQRGELALKDARAKLVDLEEALQKSKQDMARLLREYQELMNIKLALDVEIATYRKLLEGEECRLSGEGVSPVNISVVTSTVSSGYGGGSSIGSGSLGLSGGSGCSFMTSGGHSLGGSSFSNSSSRGLGGSGSSFKFVSTTSSSRKSYKH", "values": [
      {"measurement": "Effect on increase in body temperature (summary)", "setting": "[1]; 2, 4, 6 and 8 hours after modeling, dose not given", "value": "significantly inhibit the increase in body temperature"},
      {"measurement": "Body temperature 2 hours after modeling", "setting": "[1]; BD-11 10 mg/kg oral", "value": "37.2±0.2", "unit": "°C"},
      {"measurement": "Body temperature 4 hours after modeling", "setting": "[1]; BD-11 10 mg/kg oral", "value": 37.7, "unit": "°C"},
      {"measurement": "Body temperature 6 hours after modeling", "setting": "[1]; BD-11 10 mg/kg oral", "value": 37.6, "unit": "°C"},
      {"measurement": "Body temperature 8 hours after modeling", "setting": "[1]; BD-11 10 mg/kg oral", "value": "37.4±0.1", "unit": "°C"},
      {"measurement": "Body temperature 2 hours after modeling", "setting": "[1]; BD-11 50 mg/kg oral", "value": "37.3 ± 0.1", "unit": "°C"},
      {"measurement": "Body temperature 4 hours after modeling", "setting": "[1]; BD-11 50 mg/kg oral", "value": "37.5 ± 0.2", "unit": "°C"},
      {"measurement": "Body temperature 6 hours after modeling", "setting": "[1]; BD-11 50 mg/kg oral", "value": 37.7, "unit": "°C"},
      {"measurement": "Body temperature 8 hours after modeling", "setting": "[1]; BD-11 50 mg/kg oral", "value": "37.7±0.2", "unit": "°C"},
      {"measurement": "Effect on body temperature of model rats", "setting": "[1]; BD-11 10, 50 mg/kg oral, 2 hours after modeling", "value": "tendency to lower the body temperature of model rats 2 hours after modeling, but there is no statistically significant"},
      {"measurement": "Cases of deaths", "setting": "[2]; BD-11 50 mg/kg intragastric", "value": 0},
      {"measurement": "Grade IV seizure rate", "setting": "[2]; BD-11 50 mg/kg intragastric", "value": 50, "unit": "%"},
      {"measurement": "mortality rate", "setting": "[2]; BD-11 50 mg/kg intragastric", "value": 0},
      {"measurement": "Cases of Grade IV", "setting": "[2]; BD-11 50 mg/kg intragastric", "value": 5},
      {"measurement": "Grade II seizure incubation period", "setting": "[2]; BD-11 50 mg/kg, PLO model", "value": "95 ± 6", "unit": "s"},
      {"measurement": "Grade III seizure incubation period", "setting": "[2]; BD-11 50 mg/kg, PLO model", "value": "164 ± 10", "unit": "s"},
      {"measurement": "Grade IV seizure incubation period", "setting": "[2]; BD-11 50 mg/kg, PLO model", "value": "1357 ± 154", "unit": "s"},
      {"measurement": "Incubation period of epilepsy Grade III, comparison with model group", "setting": "[2]; BD-11 200 mg/kg dose group, PLO model", "value": "statistically different from the model group"},
      {"measurement": "Cases of deaths", "setting": "[2]; BD-11 200 mg/kg intragastric", "value": 0},
      {"measurement": "Grade IV seizure rate", "setting": "[2]; BD-11 200 mg/kg intragastric", "value": 60, "unit": "%"},
      {"measurement": "mortality rate", "setting": "[2]; BD-11 200 mg/kg intragastric", "value": 0},
      {"measurement": "Cases of Grade IV", "setting": "[2]; BD-11 200 mg/kg intragastric", "value": 6},
      {"measurement": "Grade II seizure incubation period", "setting": "[2]; BD-11 200 mg/kg, PLO model", "value": "96 ± 6", "unit": "s"},
      {"measurement": "Grade III seizure incubation period", "setting": "[2]; BD-11 200 mg/kg, PLO model", "value": "164 ± 7", "unit": "s"},
      {"measurement": "Grade IV seizure incubation period", "setting": "[2]; BD-11 200 mg/kg, PLO model", "value": "1114 ± 191", "unit": "s"},
      {"measurement": "Effect on incubation period of Grade III epilepsy in mice (summary)", "setting": "[2]; dose not given", "value": "significantly prolong the incubation period of Grade III epilepsy"},
      {"measurement": "Cases of deaths", "setting": "[3]; BD-11 50 mg/kg intragastric", "value": 0},
      {"measurement": "Grade IV seizure rate", "setting": "[3]; BD-11 50 mg/kg intragastric", "value": 90, "unit": "%"},
      {"measurement": "mortality rate", "setting": "[3]; BD-11 50 mg/kg intragastric", "value": 0},
      {"measurement": "Cases of Grade IV", "setting": "[3]; BD-11 50 mg/kg intragastric", "value": 9},
      {"measurement": "Grade III seizure incubation period", "setting": "[3]; BD-11 50 mg/kg, PTZ model", "value": "68 ± 5", "unit": "s"},
      {"measurement": "Grade IV seizure incubation period", "setting": "[3]; BD-11 50 mg/kg, PTZ model", "value": "203 ± 81", "unit": "s"},
      {"measurement": "Incubation period of Grade III epilepsy, comparison with model group", "setting": "[3]; BD-11 200 mg/kg dose group, PTZ model", "value": "significantly different from the model group"},
      {"measurement": "Cases of deaths", "setting": "[3]; BD-11 200 mg/kg intragastric", "value": 0},
      {"measurement": "Grade IV seizure rate", "setting": "[3]; BD-11 200 mg/kg intragastric", "value": 60, "unit": "%"},
      {"measurement": "mortality rate", "setting": "[3]; BD-11 200 mg/kg intragastric", "value": 0},
      {"measurement": "Cases of Grade IV", "setting": "[3]; BD-11 200 mg/kg intragastric", "value": 6},
      {"measurement": "Grade III seizure incubation period", "setting": "[3]; BD-11 200 mg/kg, PTZ model", "value": "94 ± 12", "unit": "s"},
      {"measurement": "Grade IV seizure incubation period", "setting": "[3]; BD-11 200 mg/kg, PTZ model", "value": "428 ± 130", "unit": "s"}
    ]}
  ]
}
